The source of these data is article PMC5615199, “Structural Basis for EarP-Mediated Arginine Glycosylation of Translation Elongation Factor EF-P” (mBio, 2017).

Data set [1] deals with T1, Cc1cn([C@H]2C[C@H](O)[C@@H](COP(=O)(O)OP(=O)(O)O[C@H]3O[C@@H](C)[C@H](O)[C@@H](O)[C@H]3O)O2)c(=O)[nH]c1=O.
T1 construct: full-length (residues 1 to 377), 43 kDa, His6-tagged (C-terminal from pBAD33-earPPpu, N-terminal from pACYC-DUET for crystallization), expressed in E. coli; monomer
Kind of data set: Western blot quantification (anti-Arg-Rha) of EF-P rhamnosylation. Type of data set: biochemical, Pseudomonas putida. The note with it: co-substrate unmodified P. putida EF-P 2.5 µM, 100 mM NaPi pH 7.6, 30°C.

For data set [2] the test system is unchanged. The data set is described as above. The following applies: co-substrate unmodified P. putida EF-P 2.5 µM, 0.5 µM EarP, 100 mM NaPi pH 7.6, 30°C. It counts as biochemical, Pseudomonas putida. The source says:
Western blot quantification (anti-Arg-Rha) of EF-P rhamnosylation on EarPPpu (EF-P-arginine rhamnosyltransferase EarP) | when we measured the kinetics of the F191A^EarP and Y193A^EarP variants

A short description of data set [3]: PcadBA::lacZ β-galactosidase, E. coli Δefp. The following applies: glycan lost; control: EF-PPpu coproduced with wild-type EarPPpu.
Data set [4] has as its target T2, EarPPpu, EarP from Pseudomonas putida KT2440, purified His6-tagged protein (Pseudomonas putida KT2440, UniProt Q88LS1 2-377).
T2 construct: EarP, Pseudomonas putida KT2440, 43 kDa; domains are told as aa 1-153, 184-361 and 362-377; also called WT^EarP; source: E. coli LMG194 (pBAD33-earPPpu) or E. coli BL21(DE3) (pACYC-DUET-earPPpu), purified (Ni-NTA)
T2 sequence: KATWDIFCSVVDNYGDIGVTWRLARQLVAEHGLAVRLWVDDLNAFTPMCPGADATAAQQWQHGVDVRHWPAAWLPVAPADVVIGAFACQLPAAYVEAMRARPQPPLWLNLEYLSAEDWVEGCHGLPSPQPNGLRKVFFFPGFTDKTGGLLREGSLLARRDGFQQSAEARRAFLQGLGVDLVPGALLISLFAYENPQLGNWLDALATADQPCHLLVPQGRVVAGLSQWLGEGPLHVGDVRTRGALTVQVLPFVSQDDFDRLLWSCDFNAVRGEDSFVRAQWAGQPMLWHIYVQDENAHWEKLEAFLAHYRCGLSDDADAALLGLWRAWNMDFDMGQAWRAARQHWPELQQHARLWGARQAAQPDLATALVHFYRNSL
Kind of data set: NMR titration; 15N-labelled EF-P (150 µM unmodified or 41 µM rhamnosylated) titrated with unlabelled EarP to a 1:2 EF-P/EarP molar ratio, 1H-15N HSQC, 298 K, 100 mM NaPi pH 7.6, 50 mM NaCl, 5 mM DTT. The following applies: both partners purified.

Substrate in data set [5]: Cc1cn([C@H]2C[C@H](O)[C@@H](COP(=O)(O)OP(=O)(O)O[C@H]3O[C@@H](C)[C@H](O)[C@@H](O)[C@H]3O)O2)c(=O)[nH]c1=O
Kind of data set: Western blot quantification (anti-Arg-Rha) of EF-P rhamnosylation. Type of data set: biochemical, Pseudomonas putida. The note with it: co-substrate unmodified P. putida EF-P 2.5 µM, 0.1 µM EarP, 100 mM NaPi pH 7.6, 30°C, 20 s. A general note: A western blot detects proteins with antibodies after separation by electrophoresis.

[6] abbreviates: lowest-mass SEC fraction of a partly unfolded, aggregating variant.

As a reminder, the Km is the substrate concentration at which the rate is half of its maximum. For “EarPPpu (EF-P-arginine rhamnosyltransferase EarP) (Pseudomonas putida KT2440; F252A)”, the Michaelis constant (Km) in data set [1] was 3400 µM. The term kcat denotes the maximal rate divided by the concentration of active sites. As for “EarPPpu (EF-P-arginine rhamnosyltransferase EarP) (Pseudomonas putida KT2440; F191A)”, in data set [2], the Km was 810 µM and the catalytic constant (kcat) is 0.00017 s⁻¹. Taken in the same sequence, the figures for “EarPPpu (EF-P-arginine rhamnosyltransferase EarP) (Pseudomonas putida KT2440; Y193A)” were 760 µM and 0.00017 s⁻¹. As for “EarPPpu (EF-P-arginine rhamnosyltransferase EarP) (Pseudomonas putida KT2440; D274A)”, in data set [1] (setting [6]), the Km came to 206 µM and the kcat worked out at 0.0123 s⁻¹.

B1: EF-PPpu (translation elongation factor EF-P): coproduction with inactive D13AEarP (protein)
parent chain: MKTGKELKPGTVLRIDNDPWLVQKAEFTKSGRNSAIMKTKLKNLLTGYKTETVYGADDKLDDVILDRKEATLSFINGDEYTFMDTTDYTMYELNAEDIEAVLPYIEEGMEDVCEAVFFEGRLVSVELPTTISRKVVYTENAARGDTSGKVMKPAKLANGTEISVADFIQIDEWIDIDTRDNSFKGRSKK
As to B1, the “other: EF-P translational rescue activity (PcadBA activation)” value in data set [3] was “abolishes”.

B2: rhamnosylated EF-PPpu (EF-P^Rha), purified (natural protein, Pseudomonas putida, UniProt Q88LS0 1-189, looked up)
chain: MKTGKELKPGTVLRIDNDPWLVQKAEFTKSGRNSAIMKTKLKNLLTGYKTETVYGADDKLDDVILDRKEATLSFINGDEYTFMDTTDYTMYELNAEDIEAVLPYIEEGMEDVCEAVFFEGRLVSVELPTTISRKVVYTENAARGDTSGKVMKPAKLANGTEISVADFIQIDEWIDIDTRDNSFKGRSKK
modifications: rhamnosyl-arginine at R32
notes: translation elongation factor EF-P, Pseudomonas putida, rhamnosylated on arginine 32; 15N-labelled for the NMR titration; also called modified EF-P; source: E. coli, cooverproduced with His6-tagged EarPPpu, purified
In the case of B2, the binding result in data set [4] is recorded as “binds”.

B3: unmodified EF-PPpu, purified, tag-free (natural protein, Pseudomonas putida, UniProt Q88LS0 1-189, looked up)
chain: MKTGKELKPGTVLRIDNDPWLVQKAEFTKSGRNSAIMKTKLKNLLTGYKTETVYGADDKLDDVILDRKEATLSFINGDEYTFMDTTDYTMYELNAEDIEAVLPYIEEGMEDVCEAVFFEGRLVSVELPTTISRKVVYTENAARGDTSGKVMKPAKLANGTEISVADFIQIDEWIDIDTRDNSFKGRSKK
notes: translation elongation factor EF-P, Pseudomonas putida; 15N-labelled for the NMR titration (grown in M9 minimal medium); source: E. coli BL21(DE3) (pET-SUMO-efpPpu), purified (Ni-NTA, tag removed with His6-Ulp1)
As for B3, the binding result in data set [4] was “binds”.

B4: EF-PPpu (translation elongation factor EF-P): coproduction with inactive D17AEarP (protein)
parent chain: MKTGKELKPGTVLRIDNDPWLVQKAEFTKSGRNSAIMKTKLKNLLTGYKTETVYGADDKLDDVILDRKEATLSFINGDEYTFMDTTDYTMYELNAEDIEAVLPYIEEGMEDVCEAVFFEGRLVSVELPTTISRKVVYTENAARGDTSGKVMKPAKLANGTEISVADFIQIDEWIDIDTRDNSFKGRSKK
Take B4: the “other: EF-P translational rescue activity (PcadBA activation)” value in data set [3] is “abolishes”.

B5: EF-PPpu (translation elongation factor EF-P): coproduction with inactive E273AEarP (protein)
parent chain: MKTGKELKPGTVLRIDNDPWLVQKAEFTKSGRNSAIMKTKLKNLLTGYKTETVYGADDKLDDVILDRKEATLSFINGDEYTFMDTTDYTMYELNAEDIEAVLPYIEEGMEDVCEAVFFEGRLVSVELPTTISRKVVYTENAARGDTSGKVMKPAKLANGTEISVADFIQIDEWIDIDTRDNSFKGRSKK
With B5, in data set [3], the “other: EF-P translational rescue activity (PcadBA activation)” value was “abolishes”.

B6: EarPPpu (EF-P-arginine rhamnosyltransferase EarP) (Pseudomonas putida KT2440) (protein)
chain: MKATWDIFCSVVDNYGDIGVTWRLARQLVAEHGLAVRLWVDDLNAFTPMCPGADATAAQQWQHGVDVRHWPAAWLPVAPADVVIGAFACQLPAAYVEAMRARPQPPLWLNLEYLSAEDWVEGCHGLPSPQPNGLRKVFFFPGFTDKTGGLLREGSLLARRDGFQQSAEARRAFLQGLGVDLVPGALLISLFAYENPQLGNWLDALATADQPCHLLVPQGRVVAGLSQWLGEGPLHVGDVRTRGALTVQVLPFVSQDDFDRLLWSCDFNAVRGEDSFVRAQWAGQPMLWHIYVQDENAHWEKLEAFLAHYRCGLSDDADAALLGLWRAWNMDFDMGQAWRAARQHWPELQQHARLWGARQAAQPDLATALVHFYRNSL
notes: full-length (residues 1 to 377), 43 kDa, His6-tagged (C-terminal from pBAD33-earPPpu, N-terminal from pACYC-DUET for crystallization), expressed in E. coli; monomer
In the case of B6, in data set [5], the Km is listed as 53 µM and the kcat turned out to be 0.583 s⁻¹.
